According to patent US11767344B2, “Pharmaceutically acceptable salts of polypeptides and methods of inhibiting the interaction between psd-95 and n-methyl-d-aspartic acid receptor (nmdar)” (BIOCELLS (BEIJING) BIOTECH CO., LTD., priority 2017, dated 2023):
Ends that are not written are not given here.

Key:
rat MCAO model = test: Therapeutic effect on rat MCAO model (cerebral infarction volume, TTC staining); type: in vivo
[1] = Stability analysis of P5 salt powders (HPLC area normalization); details: powder, 10 days
Protocol: The three P5 salts in Example 3 in their powder form were subjected to treatments with irradiation (3000 Lx)+ultraviolet (UV), high temperature (60° C.), and high humidity (75% RH) for 10 days. After the treatments, the powders were dissolved in water to prepare a solution at a concentration of 2 mg/ml. 10 μl of each solution was accurately measured and injected into a liquid chromatograph, and the chromatograms were recorded. Relevant substances were calculated according to the area normalization method to analyze the content and the number of impurity species.
(§1) Mobile phase: A 0.065% TFA-water; B 0.05% TFA-ACN
(§2) Detection wavelength λ=220 nm; flow rate V=1.0 ml/min; temperature T=36° C.
Injection volume Inj=10 ul
(§3) Gradient conditions: 0-30 min, B %=5-65%

[2] = Stability analysis of P5 salt solutions (HPLC area normalization); details: aqueous solution 2 mg/ml, irradiation (3000 Lx), 10 days
Protocol: The solutions were subjected to treatments with irradiation (3000 Lx) and high temperature (60° C.) for 10 days. After the treatments, 10 μl of each solution was accurately measured and injected into a liquid chromatograph, and the chromatograms were recorded. The relevant substances were calculated according to the area normalization method to analyze the content and the number of impurity species.
high performance liquid chromatograph (Agilent, 1260 EZChrom); chromatographic column (Agilent, ZORBAX 300SB-C18 (4.6*250 mm, 5 μm) SN: USHH008416); analytical balance (Sartoris, BT25S); filter membrane (Millipore, 0.45 μm PTFE); acetonitrile (MREDA); water (Aqua); TFA (MREDA); and comprehensive drug stability test box (three-box type) (Shanghai Zuocheng Experimental Instrument Co. Ltd, item no. SHH-3SDT).
as §1, §2
Injection volume Inj=10 μl
as §3

[3] = irradiation (3000 Lx) + ultraviolet

Substance: P5-TFA: trifluoroacetate salt of chimeric peptide P5 (YGRKKRRQRRRYEKLLDTEI) (also: trifluoroacetate salt)
- cerebral infarction volume as compared with the model group (rat MCAO model; 10 mg/kg tail vein injection 1 hour after ischemia, 24 h after administration, p<0.01): significantly reduced
- effect in reducing cerebral infarction volume as compared with positive control drug NBP (rat MCAO model; 10 mg/kg vs NBP 2.5 mg/kg, tail vein injection 1 hour after ischemia, p<0.05): significantly superior
- Number of impurity species ([1]; high humidity (75% RH)): 1
- Percentage of main peak area ([1]; high humidity (75% RH)): 99.73%
- Number of impurity species ([1]; high temperature (60° C.)): 3
- Percentage of main peak area ([1]; high temperature (60° C.)): 99.56%
- Number of impurity species [1, 3]: 6
- Percentage of main peak area [1, 3]: 98.34%
- Number of impurity species [2]: 10
- Percentage of main peak area [2]: 97.28%
